Measured values taken from PMC4334984, “In Vitro Selection of a Single-Stranded DNA Molecular Recognition Element against Clostridium difficile Toxin B and Sensitive Detection in Human Fecal Matter”.

Target: Toxin B (Clostridium difficile, UniProt P18177 1-2366)
Test: SPR (single cycle kinetics, 1:1 model); […] (pH not stated); […]; SPR temperature not stated
Conditions: protein: commercial

Toxin B, sequence (P18177 whole entry): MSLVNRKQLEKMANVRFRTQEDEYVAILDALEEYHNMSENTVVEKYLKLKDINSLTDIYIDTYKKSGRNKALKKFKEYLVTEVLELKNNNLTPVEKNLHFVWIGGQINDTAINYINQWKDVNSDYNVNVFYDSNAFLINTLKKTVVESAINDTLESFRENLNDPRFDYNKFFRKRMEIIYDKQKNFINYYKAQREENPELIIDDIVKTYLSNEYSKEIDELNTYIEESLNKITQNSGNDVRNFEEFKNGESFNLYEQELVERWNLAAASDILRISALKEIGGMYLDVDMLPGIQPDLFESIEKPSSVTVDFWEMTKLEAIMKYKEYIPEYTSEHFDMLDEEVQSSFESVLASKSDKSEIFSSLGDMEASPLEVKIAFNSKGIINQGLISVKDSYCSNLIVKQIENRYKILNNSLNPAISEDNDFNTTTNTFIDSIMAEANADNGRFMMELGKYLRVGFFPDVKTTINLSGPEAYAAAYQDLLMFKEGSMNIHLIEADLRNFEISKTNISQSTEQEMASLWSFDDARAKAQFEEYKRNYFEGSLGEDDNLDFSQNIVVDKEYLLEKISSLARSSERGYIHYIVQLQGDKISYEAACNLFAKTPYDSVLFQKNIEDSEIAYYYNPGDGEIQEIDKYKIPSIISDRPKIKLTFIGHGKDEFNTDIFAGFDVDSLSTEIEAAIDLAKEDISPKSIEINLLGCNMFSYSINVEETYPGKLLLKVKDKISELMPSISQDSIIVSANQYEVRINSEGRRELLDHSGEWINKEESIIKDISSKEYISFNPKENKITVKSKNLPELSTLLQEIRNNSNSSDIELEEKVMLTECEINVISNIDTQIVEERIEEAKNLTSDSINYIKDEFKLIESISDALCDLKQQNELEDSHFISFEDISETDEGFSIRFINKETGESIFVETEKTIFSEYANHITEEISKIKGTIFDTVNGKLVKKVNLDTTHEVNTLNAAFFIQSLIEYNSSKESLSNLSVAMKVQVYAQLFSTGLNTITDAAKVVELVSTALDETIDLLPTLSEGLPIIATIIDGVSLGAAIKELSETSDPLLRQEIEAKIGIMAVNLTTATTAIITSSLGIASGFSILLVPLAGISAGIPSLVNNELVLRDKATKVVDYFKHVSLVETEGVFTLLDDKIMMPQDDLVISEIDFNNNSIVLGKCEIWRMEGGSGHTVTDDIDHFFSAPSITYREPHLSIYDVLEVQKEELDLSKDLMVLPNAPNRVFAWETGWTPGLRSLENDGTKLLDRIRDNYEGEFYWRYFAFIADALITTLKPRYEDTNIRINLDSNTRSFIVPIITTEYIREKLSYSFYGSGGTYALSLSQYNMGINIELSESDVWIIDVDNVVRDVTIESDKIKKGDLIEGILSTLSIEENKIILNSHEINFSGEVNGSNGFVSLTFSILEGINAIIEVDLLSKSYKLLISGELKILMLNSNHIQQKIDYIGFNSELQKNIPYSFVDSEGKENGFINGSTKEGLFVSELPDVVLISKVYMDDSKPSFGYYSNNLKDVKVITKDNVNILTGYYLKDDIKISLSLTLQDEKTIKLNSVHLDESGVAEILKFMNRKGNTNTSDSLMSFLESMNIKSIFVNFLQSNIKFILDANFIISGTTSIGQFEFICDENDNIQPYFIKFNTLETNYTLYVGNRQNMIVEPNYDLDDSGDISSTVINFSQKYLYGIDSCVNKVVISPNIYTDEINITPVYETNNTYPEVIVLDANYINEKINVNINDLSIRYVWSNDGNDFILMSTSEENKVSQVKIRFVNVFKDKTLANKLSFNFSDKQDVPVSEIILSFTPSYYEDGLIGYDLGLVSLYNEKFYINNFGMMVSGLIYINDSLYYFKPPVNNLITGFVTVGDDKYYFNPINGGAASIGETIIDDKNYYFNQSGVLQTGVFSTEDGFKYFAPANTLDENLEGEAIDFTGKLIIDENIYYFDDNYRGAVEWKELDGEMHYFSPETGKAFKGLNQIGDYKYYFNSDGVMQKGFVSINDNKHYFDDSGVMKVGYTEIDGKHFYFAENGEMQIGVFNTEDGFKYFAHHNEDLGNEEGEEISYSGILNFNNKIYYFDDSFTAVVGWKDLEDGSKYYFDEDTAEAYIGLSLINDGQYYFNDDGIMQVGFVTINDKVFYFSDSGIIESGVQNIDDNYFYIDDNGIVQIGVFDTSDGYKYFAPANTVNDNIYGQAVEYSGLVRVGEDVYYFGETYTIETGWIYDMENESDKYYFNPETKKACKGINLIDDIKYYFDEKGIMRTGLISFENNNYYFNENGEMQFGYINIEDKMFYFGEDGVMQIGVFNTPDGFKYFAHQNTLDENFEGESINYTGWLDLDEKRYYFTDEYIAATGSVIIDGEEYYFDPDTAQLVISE

B1: R12.69 (SPR) (ssDNA)
DNA: TGTACCGTCTGAGCGATTCGTACCCTCGCTAATGCTGCTTGATGTGTGGCCTCGAATAGCCAGTCAGTGTTAAGGAGTGC
modifications: 5'-amino-C6
Question: How did the Kd turn out when B1 was run?
Answer: 47.3 ± 13.7 nM
